Measured values published in US20240400680A1 (SHANGHAI CELGEN BIO PHARMACEUTICAL, published 2024).

B1: human-mouse chimeric TIGIT monoclonal antibody 7103-07 (hFc) (antibody, from a related filing, V domains shown)
VH: EVQVVESGGGLVKPGGTLKLSCAASGFTFSTYAMSWVRQSPEQRLEWVAEISSGGSHTFYSDTVTGRFTISRDNAQNTLYLEMNSLRSEDTAMYYCARKTLDYYALDYWGQGTSVTVSS
VL: DVQITQSPSYLAASPGETITINCRASKSISKYLAWYQEKPGKTNKLLIYSGSRLQSGIPSKFSGSGYGTDFTLTISSLEPEDFAMYYCQQHNEYPWTFGGGTKVEIK
B2: human-mouse chimeric TIGIT monoclonal antibody 7103-01 (hFc) (antibody, from a related filing, V domains shown)
VH: QVQLQQPGAELVKPGASVKLSCKASGYTFISYNIYWVKQRPGQGLEWIGGVNPSNGNTNFNENFKSKATLTVDKSSSTAYMQLSSLTSDDSAVYFCTRGNYYGYEFAYWGQGTLVTVSA
VL: DIVMTQSHKFMSTSVGDRVSITCKASQHVSTAVAWYQQKPGQSPKLLIYSPSYRYTGVPDRFTGSGSGTDFTFTISSVQAEDLAVYYCQQHYSTPWTFGGGTKLEIK
B3: humanized anti-TIGIT monoclonal antibody P03489 (antibody, V domains shown)
VH: QVQLVQSGAEVKKPGASVKVSCKASGYTFISYNIYWVRQAPGQGLEWMGGVNPSNGNTNFNENFQGRVTMTVDTSISTAYMELSRLRSDDTAVYYCTRGNYYGYEFAYWGQGTTVTVSS
VL: DIQMTQSPSSMSASVGDRVTITCKASQHVSTAVAWYQQKPGKAPKLLIYSPSYRYTGVPSRFSGSGSGTDFTFTISSVQPEDIATYYCQQHYSTPWTFGGGTKLEIK
notes: Only variable domains are tied to P03489 itself; HC2/LC2 of the fusion proteins derive from it
B4: humanized anti-TIGIT monoclonal antibody P03479 (antibody, V domains shown)
VH: EVQVVESGGGLVKPGGSLRLSCAASGFTFSTYAMSWVRQAPGKGLEWVAEISSGGSHTFYADTVKGRFTISRDNAKNTLYLQMNSLRAEDTAVYYCARKTLDYYALDYWGQGTTVTVSS
VL: DVQITQSPSYLSASVGDRVTINCRASKSISKYLAWYQQKPGKAPKLLIYSGSRLQSGIPSRFSGSGYGTDFTLTISSLQPEDFATYYCQQHNEYPWTFGGGTKLEIK
notes: Only variable domains are tied to P03479 itself; HC1/LC1 of the fusion proteins derive from it

Legend:
[1] = molecular target: T1, full-length human TIGIT on the cell membrane (CHO-K-TIGIT cells; TIGIT-Jurkat cells) (human) (UniProt Q495A1); experiment: cell-based or functional assay
T1 sequence (looked up): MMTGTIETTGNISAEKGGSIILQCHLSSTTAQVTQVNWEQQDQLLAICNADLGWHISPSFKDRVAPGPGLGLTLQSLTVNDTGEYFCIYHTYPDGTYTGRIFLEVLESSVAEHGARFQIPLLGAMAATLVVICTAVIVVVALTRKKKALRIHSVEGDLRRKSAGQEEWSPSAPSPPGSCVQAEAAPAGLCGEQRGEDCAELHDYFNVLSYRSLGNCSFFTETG

[2] = molecular target: recombinant human TIGIT (Human TIGIT His, Sino Biological, 10917-H08H) (human) (UniProt Q495A1); experiment: BLI (GATOR), antibody on human antibody capture probe, TIGIT-His 40-10 nM
[3] = molecular target: T2, recombinant human TIGIT (Human TIGIT His, Sino Biological, 10917-H08H) (human, UniProt Q495A1 22-138); experiment: ELISA on recombinant human TIGIT protein
T2 construct: range 1-138; Bought protein; also called recombinant human TIGIT antigen; recombinant human TIGIT protein; not shown: C-terminal histidine tag
T2 sequence (looked up): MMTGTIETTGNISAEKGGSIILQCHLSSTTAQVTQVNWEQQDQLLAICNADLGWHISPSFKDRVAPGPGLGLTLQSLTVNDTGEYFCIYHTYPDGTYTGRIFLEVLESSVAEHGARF

[4] = molecular target: T3, full-length human TIGIT on the cell membrane (CHO-K-TIGIT cells; TIGIT-Jurkat cells) (human, UniProt Q495A1 22-244); experiment: flow cytometry on TIGIT-Jurkat cells
T3 construct: whole, on cells; Also used here for TIGIT on human PBMCs in the IFN-gamma assay; also called CHO-TIGIT
T3 sequence (looked up): T1 sequence (looked up)
Protocol: The binding activity of the anti-TIGIT antibody-IL2 fusion proteins to TIGIT on the cell membrane was tested using flow cytometry. A Jurkat cell line stably expressing human TIGIT was first established. The full-length human TIGIT gene (Sinobio) was amplified by PCR and cloned into the mammalian cell expression vector pcDNA3.1 (Invitrogen), using Not I and Xba I as cloning enzymes. The TIGIT expression plasmid was transfected into Jurkat cells to construct a stable Jurkat cell line expressing TIGIT (TIGIT-Jurkat).
The flow cytometry study method for the binding of TIGIT antibody-IL2 fusion proteins to cell membrane-bound TIGIT is summarized as follows: FACS buffer (1×PBS+0.5% BSA solution) was prepared. The required number of TIGIT-Jurkat cells, about 1×10⁵ to 5×10⁵ cells per sample, was taken and incubated with HC1-IL2 wt/LC1 (ART-Ig) and HC1-IL2mut/LC1 (ART-Ig) diluted to a certain ratio in FACS buffer, approximately 100 μL, at 4° C. for 30 minutes. After washing the cells once with FACS buffer, they were resuspended in FITC-conjugated anti-human IgG (Abcam: 6854) diluted in FACS buffer and incubated at 4° C. for 30 minutes. Finally, after washing the cells with FACS buffer, they were resuspended in 200 μL of FACS buffer for analysis. The parent TIGIT antibody P03479 was used as a control.

Molecule | Kd [2] | koff [2] | kon [2] | further results
Tiragolumab (antibody) | – | – | – | IFNγ release from PHA-activated PBMCs, increase [1]: 16%
B1 | 2.96 nM | 0.00169 s⁻¹ | 573000 M⁻¹ s⁻¹ | –
B2 | 1.73 nM | 0.000951 s⁻¹ | 549000 M⁻¹ s⁻¹ | –
B3 | – | – | – | EC50 [3]: 0.5 nM
B4 | – | – | – | EC50 [4]: 0.26 µg/mL
